Measurements: the domain aggregation screens of Martell et al. (2025)

experiment: soluble fraction after stress (log2 fold change); higher = more stays soluble; pooled small domains, quantitative proteomics; conditions: stress: pH 4
Outline: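 Values are on a log2 scale, where higher means more of the domain stayed soluble after pH 4 stress. They are fold changes in the soluble amount of each domain from pooled custom libraries, measured by high-throughput quantitative proteomics. The fold change is taken to reflect aggregation propensity.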

Going from “HMDLVESYDLKIIYTSELINLLIDSSRLEEALNLFKDLKDEIDDVENLGFSAKNNLDYMESKLLHLG” to “HMDLYIILGLERSATLSDVRRAYRRLARKYHPGINPGDRNSASVFTRVSEAYQVLSDPEQRRRYDSR”, the “soluble fraction (log2)” value rises from -1.6 to -0.583.

Compared with “HMDMDRRALLLALINDRYHASVAEFARAINKAPAQVHQWLSGNRALGNAGARDIEIRLNLAQGYFDH”, “HMDMQMPIMNGLEFLERINLTLDDNFSIIVLTGKIEDKSIEKSFELGINAYLRKPFNIYALLGIVRQN” is lower in “soluble fraction (log2)” value: 0.282 for the first, -0.102 for the second.

“HMDMSDFEVVRDMYLTGKVWNAGDIVEAKGITGEVVRKGTNYLSFVDKNGKVHKAWLHEIEL” and “HMDNAILQELYDYYKEDPSLSQSELIISMLTRIQEAVGYVSKDVQEEVARLAGVNRGYVAAIIKNLPHL” are within 0.2 log units of each other in “soluble fraction (log2)” value: -0.968 for the first, -0.963 for the second.

Compared with “HMDNEYDKVYQAALSKLEGYPRSSITTAVIKDVVAQTIKYFEIKNFGYEDTIINQLQSAFTVKSSS”, “HMDNLSESQIKAYSSILSRTHEISDLAENKDYLAFSLWIANILRDPQSVREETAKRVFSALHTNTDFK” is lower in “soluble fraction (log2)” value: 0.0114 for the first, -0.793 for the second.

Compared with “HMDNMFMPPVNGWDVRQALQKLQNEMGLQVKMEYSPSETITEGYVISYTPIDGMKVEKGDEVTLVISTGPE”, “HMDNMTEMQKAVTALIEKSGGSIDNLSVIYDHLKKKYPSFDLKDYGYSRFSSFLRSMENIMVRGNAVTLRS” is higher in “soluble fraction (log2)” value: -0.675 for the first, 0.0508 for the second.

Compared with “HMDNPPDRAEIEQMLKDAGLTPEADAMAALSDLARTLDPGDFRQTLEKITLYKLGDSTPIGLDDIAAGAP”, “HMDNQSIVRINDGDGAWRQRLGEHFGHLPRDRKRGEIVLQVDAADWRWLQTQGYAPRFDAALSAQLQTTL” is higher in “soluble fraction (log2)” value: -1.18 for the first, -0.147 for the second.

First: HMDNVLGKSGKVIFVNEEINSYGRAFIPGHGEWNIRTKSDQNIHINDGIKVIERDGITLVVEL
Second: HMDNVQLRNFAIKATEASIIYLDQEQRNFFWYNNNKKLMTVPFDENPYSAFAAYLKTDEGSEVYKAIEKKF
The “soluble fraction (log2)” value of the first is lower: -1.3 for the first, -0.504 for the second.

Compared with “HMDNWAALLSEREVQVSRLVANGASNKEIADHLAITERTVKAHLTAVFEKLGVRDRLQLSLRVNGL”, “HMDPALSPAEQKIWDLLAAGETHIDDLVRASGLPVATVNSALVMMEMKEVISQVAAKTYRRNRRN” is higher in “soluble fraction (log2)” value: -1.64 for the first, -0.458 for the second.

First: HMDPEARRRAILNAAIDVIVEKGAAALTHRAVAARAGVSLGSTTKYFSSIEDLRENAMDALVREMD
Second: HMDPEEQIQSREIWEAVERALDGMQEKGRRVVIALLEGQTQLEVSRAAGISQPLISYYLKSFRTKVRTELG
The “soluble fraction (log2)” value of the first is lower: -0.756 for the first, -0.269 for the second.

Compared with “HMDPEIADAVNTIKKYLESHYSEVITRKKIEELVHLNQDHINREFKKQTGYTLMEYVQHYRILMAKKMLRV”, “HMDPEQLKIAINTKMPFGKYSGRPLLLLPEPYLVWFKQQGFPDSKLGSQLAMMYEVKLNGLEQMLMPLL” is lower in “soluble fraction (log2)” value: -0.1 for the first, -0.506 for the second.

“HMDPERLDQLQNPDPAVRREAIIALGRSKDLAALPELAKVYKNDPVPELRELARQAGRYIQQENRP” and “HMDPFVILGISKDSSQSEILEAYKTKRAYYQEHVFDEGDQGAQAARMLGQLDDAYQQAMELSHE” are within 0.2 log units of each other in “soluble fraction (log2)” value: 0.254 for the first, 0.139 for the second.

“HMDPKISWESDEKLSANIGHYENSIKPLMGNKYLIELSQLKDKIESHPWVARATIKRIFWNKIHIQLESHD” and “HMDPKWSHVRRLLDDENPIVRKALTEELIRSPEEGLAFLEQVIREPDHLLAKHAHNLLSELGWV” are within 0.2 log units of each other in “soluble fraction (log2)” value: 0.108 for the first, 0.0459 for the second.

First: HMDPLGHVIKKKRLQLGMTLRDLAAKAGVHHATIDRIETDQFKVVDPSTLVKIAEALHLDQLYLLSLN
Second: HMDPLPDEVQEVIDMVDGFKAMDELSEADKADVKAAYDAYNALSAEHKAMVPEHIVTFLNRAYDKLFD
The “soluble fraction (log2)” value of the first is higher: -0.532 for the first, -1.63 for the second.

“HMDPPVDLTPREQQVLSRIALGMSDKAIAAELGVSHQTVRNHVARIYAKIKVHSRSQAIVWAREKGIP” and “HMDPSKMKIDELEIATRTATALADGGIKSVAGLIRKSASALKELDGVGDKAIAEITEALEKLGLELKG” are within 0.2 log units of each other in “soluble fraction (log2)” value: -0.109 for the first, -0.157 for the second.

First: HMDPSWVPVFNNLRDAILSHQLLPGTRLAEDELSNIYGLGRTVIRSALGALTHEGLLTHIPNRGVHVAKP
Second: HMDPTIAAIRKKLKNWTIVEVHMTREELEQAVIDGKVDVFLSSAGFYRRLVRFGARDLATAMSPAYPD
The “soluble fraction (log2)” value of the first is lower: -0.585 for the first, -0.151 for the second.

Compared with “HMDPTYYFNLYPNPSKDEVSLFTNFTGKINIEILDLAGKSILSDNPISTISLVSLKEGLYLVKVKS”, “HMDPYLSGLLQKLAETDKKISFTRLRSEDLDGESREAIYEFIEKYSGRFGVRWLLNEFGLSPSVYYNYLHS” is lower in “soluble fraction (log2)” value: -0.337 for the first, -0.644 for the second.

“HMDQDLGFLINKYFELGKDYNTLVEIYEKIKEYIASIDKKMLEYTKNFTIEQLKKWLDDGTINNIILTLG” and “HMDQEDAYMQVRQVFDTLLVSELSKRIFAWRFFEGKSFAEWPGAESQKFLYDTFNRILLIISAKIRRKNA” are within 0.2 log units of each other in “soluble fraction (log2)” value: -0.382 for the first, -0.522 for the second.

“HMDQHERQQLLIHIAGGEREALAELYQRTRSAVYGLALSYLKNAHDAQDLTRDVYVQVWDRA” and “HMDQQTKFKTALAALAASAETKDRKLTKADVKEFLEDMDLGEEQMKLVYAYLASKHIHVEGAE” are within 0.2 log units of each other in “soluble fraction (log2)” value: 0.0408 for the first, -0.0463 for the second.

Going from “HMDQSIDADIINLNFSKNIIKIEENVYYKNNNAKVNADKIEINIETKKLKISMNEQEDEVEIFAK” to “HMDQTIFFGQQKAINNLSTDAGLSATELDEYLKKRYKRPLYQLTQAEGAEIIKGFQDGALSRSSILDYTK”, the “soluble fraction (log2)” value rises from -0.399 to 0.22.

Compared with “HMDRKFFFNEQYEDYINSDLKVKFMNDSGSKKSFQGELTKVTPSDLFLESEKESVKVPFSSIIQANLI”, “HMDRLTISTLGNGLFRVNGAEAEATVYNLSGNVVKVVPADEVIDLSSLAKGVYIIHVDGEAFKVI” is higher in “soluble fraction (log2)” value: -0.591 for the first, -0.0808 for the second.

Going from “HMDRMFQPETWSKIYQWVMNDPQVPDKEDVLALIRRHFGNFEKLIKLLHYLDGGKPYAYLSEH” to “HMDRSLYVGDAVGFDSARGLMEIEVKNKFSVVAVSLKKKPSGNFITPLLRMEKKKGEAVTVAPGSGHR”, the “soluble fraction (log2)” value falls from 0.411 to -0.141.

“HMDRSQRDQEQAQLIRLVQQAFDDSGQRYGAEKIRITLAEGGIRVSTKRIAAIMQELDLRSI” and “HMDRSRAEIDLGHVETAIRTLAEGGMVQEYAIGGRSLKRYKMGELLQLKAELENEINMERRKEKMRQ” are within 0.2 log units of each other in “soluble fraction (log2)” value: 0.251 for the first, 0.184 for the second.

“HMDRVDGWLHDGKLYLRVVDYKTGKKSFDLAELRYGLGLQMLLYLFTLKEEGQMLFGGHEIVPAGVL” and “HMDRVSEITLTRLRDYAADGQVRTATLTHRTNVVTGTLRDGRRFSAGVPPMYGDELTTFLLDNGVRVDSDN” are within 0.2 log units of each other in “soluble fraction (log2)” value: -0.282 for the first, -0.276 for the second.

First: HMDSDMGQQLKTLLTVGTFMSSKELKAIAQQLGLKKPTDLKEWVELESGTQRIEGKPTKGYWIKMNDINN
Second: HMDSGINVWASAEGLTITADKDTTVYVYDIYGRTIHTSEVKAGTSDIAINTKGIVIVKANGYTKKII
The “soluble fraction (log2)” value of the first is higher: -0.288 for the first, -0.76 for the second.

“HMDSILSIVGGEESYKALLAWAENNISQQELQQLETILKSGNVPAIKRVLVTLMNRFNQAQS” and “HMDSINGEASISRELHGTRFDQAAAILFPEFSRSRLQAWIGAGALTLDGQTARAKDKVTQGQHLVLAAAVE” are within 0.2 log units of each other in “soluble fraction (log2)” value: -0.547 for the first, -0.536 for the second.

“HMDSINIDEETAKLGPNAPQIIDGIKKWGQGLVAKGVWSDEDFDEFKVFAATSSGINALNKIRKYY” and “HMDSKYLRIFSTLIDEMEKMSPGEQLQSERELSQRFQVSPMTVRRALHKLSTEGYTSAIPGKGTFVRK” are within 0.2 log units of each other in “soluble fraction (log2)” value: -0.138 for the first, -0.0388 for the second.

“HMDSLELADEVGRVSEALQELRPHQREVLELSLVHGRSHQQISEKTGLALGTVKSHARRGLMRVREMLGV” and “HMDSLIEYENERSLRRLINENLSDYERTVWWLYYAGADAAHIAEQTGRSKRSAENAITRVRRKLRALITQS” are within 0.2 log units of each other in “soluble fraction (log2)” value: -0.162 for the first, -0.188 for the second.

First: HMDSNISVSEALEMVDKGSVKEIIVEGEKLYITNQDGKQYTSSKEVGVSLIELMKDSGIDPIKSDVNIIVK
Second: HMDSRVRHAVLTTLLGKRIVDDLVEKGELPGTPLVLATAPGLDRDLEQLIAQRVVTALLTTV
The “soluble fraction (log2)” value of the first is lower: -0.703 for the first, 0.192 for the second.

Compared with “HMDSSALEPIVDQIIADNPKQVEQFQAGKTKVLGFFVGQVMKQTDGTANPKQVNELVAARLKSA”, “HMDSTDSIIHYVRAHRSLEVKNLSFAEARFKKVVELEPNFARGWLGLGEVSILKNNFENASIYLDKALE” is lower in “soluble fraction (log2)” value: 0.0973 for the first, -0.505 for the second.

Compared with “HMDSTLTNEIYNELYRAITHQELKPGQNLTLTMLKKQFNVSHTPIREALTRLSADGLVTYHPNKGMKVT”, “HMDSTTHALALVRTLPRDQAEAVLLRVVADLDYADVAEIMGRSPGAVRVLVHRGLRRLEQELATRRT” is lower in “soluble fraction (log2)” value: 0.222 for the first, -0.426 for the second.

Compared with “HMDSVEYRVITGDDVNFRKGPSTDYASLGKLNKGYKVEYISETNSWSKVKYNGQTGYVYSKYVAQT”, “HMDSVTVPDISGYSPKAAEDSINNAGLKINEQGLSGSGDGQVVERTSPSAGSKVKKGDSVTVYYSKA” is higher in “soluble fraction (log2)” value: -0.262 for the first, 0.104 for the second.

First: HMDTDVFLMDLRGESRDYAEEVLINNNLEVKVIILPFSKRHYPGKVVEMRPSPFTKVKKGRIITLSVAGN
Second: HMDTDWDVSGVTPDQYRLLFSVLGGLAGVKDVGLNPDGLRIIHTPEALPSIEKAFQANGLKLKRNVD
The “soluble fraction (log2)” value of the first is lower: -1.11 for the first, -0.899 for the second.

“HMDTETLIDKYQLNASEAAVLRFMDKNRDSLRDLGIRDVARASYVSTATIVNMAKKIGYSGYSELVFAYGS” and “HMDTFSVAIGTKTPDGSSVGEVKTISRDELLLLEDEVAEDPTKEIIFTGGTKDSAQAALDGWIDYNTNLAS” are within 0.2 log units of each other in “soluble fraction (log2)” value: -0.545 for the first, -0.716 for the second.

Compared with “HMDTFYKNLSKKIKTIREKLSFSQEALAKELGISRVAISQIENGDRKISAEEIAKLSRVFNVPTDILLN”, “HMDTHDVQVPQEGQGLRLDLFLTDHIEGSRSFIQTIIKDGHVILNGKKAKANSRLNEGDYVVWSIPKPE” is lower in “soluble fraction (log2)” value: 0.131 for the first, -0.37 for the second.
